Results from the supplement of paper PMC7877785.
± gives the uncertainty stated by the source.

Experiment: self-splicing fitness, log relative to wild type (ln ratio); higher = more splicing; Tetrahymena group I intron in knt gene, E. coli kanamycin selection, DiMSum; sequences stand for … in CUCUCU…GGAGGGAAAAGUUAUCAGGCAUGCACCUGGUAGCUAGUCUUUAAACCAAUAGAUUGCAUCGGUUUAAAAGGCAAGACCGUCAAAUUGCGGGAAAGGGGUCAACAGCCGUUCAGUACCAAGUCUCAGGGGAAACUUUGAGAUGGCCUUGCAAAGGGUAUGGUAAUAAGCUGACGGACAUGGUCCUAACCACGCAGCCAAGUCCUAAGUCAACAGAUCUUCUGUUGAUAUGGAUGCAGUUCACAGACUAAAUGUCGGUCGGGGAAGAUGUAUUCUUCUCAUAAGAUAUAGUCGGACCUCUCCUUAAUGGGAGCUAGCGGAUGAAGUGAUGCAACACUGGAGCCGCUGGGAACUAAUUUGUAUGCGAAAGUAUAUUGAUUAGUUUUGGAGUACUCGUGGUCG
Outline: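 Colonies from six replicate transformations of E. coli BL21(DE3) were pooled and amplicon-sequenced on an Illumina HiSeq 2500. The library placed an intron with all eight P1ex-region nucleotides randomised inside the knt kanamycin-resistance gene on pET-22b(+), and cells grew overnight at 37°C or 30°C on LB agar with or without 25 μg/mL kanamycin (plus 100 μg/mL carbenicillin, 50 μM IPTG, 0.2% rhamnose). Fitness is the DiMSum error-weighted combination of wild-type-normalised replicate fold changes, kanamycin versus none.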

Row | Sequence | self-splicing fitness (ln) (30 °C) | self-splicing fitness (ln) (37 °C)
1 | AUGAAGCAAUAUUACGAAUU | -1.58 ± 0.084 | -1.25 ± 0.12
2 | UCUCAGCAAUAUUACGAGAG | -2.76 ± 0.11 | -1.46 ± 0.11
3 | AGCCAGCAAUAUUACGGUGU | -1.99 ± 0.084 | -2.51 ± 0.12
4 | AAACAGCAAUAUUACGAAGA | -2.29 ± 0.12 | -1.55 ± 0.11
5 | CACAAGCAAUAUUACGUAGC | -4 ± 0.12 | -2.59 ± 0.13
6 | GUCCAGCAAUAUUACGAGGA | -2.98 ± 0.27 | -2.64 ± 0.3
7 | AAGCAGCAAUAUUACGUAGC | -3.19 ± 0.15 | -1.94 ± 0.16
8 | GAGCAGCAAUAUUACGUAGG | -2.83 ± 0.13 | -2.54 ± 0.2
9 | GCGCAGCAAUAUUACGCCGG | -2.75 ± 0.25 | -1.57 ± 0.31
10 | AUCUAGCAAUAUUACGUUCC | -1.16 ± 0.18 | -1.47 ± 0.25
11 | GAGUAGCAAUAUUACGGGCA | -1.18 ± 0.22 | -1.05 ± 0.19
12 | UGUUAGCAAUAUUACGAUAA | -0.767 ± 0.17 | -0.345 ± 0.16
13 | AAGGAGCAAUAUUACGCACC | – | -1.22 ± 0.3
14 | UGUCAGCAAUAUUACGCUUU | -1.13 ± 0.091 | 0.276 ± 0.09
15 | CCCCAGCAAUAUUACGCUCG | -3.14 ± 0.17 | -2.1 ± 0.19
16 | AUACAGCAAUAUUACGAAUG | -2.16 ± 0.14 | -2.7 ± 0.19
17 | CAACAGCAAUAUUACGCAUA | -2.7 ± 0.12 | -1.4 ± 0.098
18 | ACGCAGCAAUAUUACGAAGU | -3.6 ± 0.27 | -0.721 ± 0.13
19 | ACGCAGCAAUAUUACGAUAG | -4.2 ± 0.21 | -2.65 ± 0.19
20 | AGAGAGCAAUAUUACGCUGC | -2.3 ± 0.23 | -2.63 ± 0.34
21 | CUGAAGCAAUAUUACGCGCA | -3.11 ± 0.23 | -2.19 ± 0.36
22 | GGAUAGCAAUAUUACGCACA | -0.523 ± 0.12 | 0.321 ± 0.14

Row | Sequence | self-splicing fitness (ln) (30 °C) | self-splicing fitness (ln) (37 °C)
23 | UGUUAGCAAUAUUACGAAGU | -3.08 ± 0.13 | -2.76 ± 0.19
24 | AUGUAGCAAUAUUACGUUGU | -3.85 ± 0.15 | -1.27 ± 0.092
25 | UGGGAGCAAUAUUACGUGUC | -2.08 ± 0.19 | -2.59 ± 0.33
26 | AUACAGCAAUAUUACGCACC | -1.21 ± 0.086 | -1.05 ± 0.1
27 | CAACAGCAAUAUUACGAGAC | -2.57 ± 0.11 | -2.22 ± 0.14
28 | UCUUAGCAAUAUUACGCACC | – | -1.21 ± 0.37
29 | CGAGAGCAAUAUUACGUCAU | -3.96 ± 0.4 | -1.78 ± 0.33
30 | GACAAGCAAUAUUACGGGCA | -0.702 ± 0.049 | -0.0944 ± 0.056
31 | AUAUAGCAAUAUUACGAGUC | -2.97 ± 0.34 | -2.63 ± 0.45
32 | CGCUAGCAAUAUUACGGUUC | -2.13 ± 0.21 | -0.893 ± 0.26
33 | CGUUAGCAAUAUUACGGUAG | -0.514 ± 0.097 | -0.104 ± 0.11
34 | UUGCAGCAAUAUUACGUCAG | -0.419 ± 0.11 | 0.42 ± 0.14
35 | AUAGAGCAAUAUUACGAUCC | -3.08 ± 0.33 | -2.18 ± 0.36
36 | GCGGAGCAAUAUUACGUAAA | -3.53 ± 0.31 | -1.97 ± 0.35
37 | AGGCAGCAAUAUUACGGAUG | -2.3 ± 0.1 | -2.58 ± 0.21
38 | UUUGAGCAAUAUUACGUUGG | -3.37 ± 0.28 | -2.26 ± 0.26
39 | GAUUAGCAAUAUUACGCCCG | 0.359 ± 0.24 | –
40 | GGAUAGCAAUAUUACGAUAA | -1.51 ± 0.19 | -1.46 ± 0.2
41 | CGACAGCAAUAUUACGUUCG | -2.52 ± 0.15 | -2.18 ± 0.22
42 | GACCAGCAAUAUUACGGAUG | -0.62 ± 0.056 | 0.157 ± 0.077
43 | CAGUAGCAAUAUUACGCCUU | -1.35 ± 0.4 | –
